In the DeepSol protein solubility set:

Assay: soluble on expression in E. coli; label from the status in PepcDB or PDB records

Sequence	soluble on expression in E. coli
MEVKKVLVSAFLLTTCLMSGQAQRRNEIQVPDLDGYTTLKCDFHMHSVFSDGLVWPTVRVDEAYRDGLDAISLTEHIEYRPHKQDVVSDHNRSFDLCREQAEKLGILLIKGSEITRAMAPGHFNAIFLSDSNPLEQKDYKDAFREAKKQGAFMFWNHPGWDSQQPDTTKWWPEHTALYQEGCMHGIEVANGHLYMPEAIQWCLDKNLTMIGTSDIHQPIQTDYDFEKGEHRTMTFVFAKERSLQGIREALDNRRTAAYFHELLIGREDLLRPFFEKCVKIEEVSRNEQGVTLSITNVTDLVLKLKKTAHDTLLVYFRDMTLKPHTRYTVRIGFKQGIKGGDVNFEVTNFIVAPDKGLKYTISL	not soluble
MEWLNEPPNWSHSDQKIIVTTSPKTDFWRITHYGFIRDSGHFYFDRVSTDFVVDVKIKGNYKDLYDQAGIMIRADEQHWIKTGIEYVDGVQNLSAVVTHNYSDWSFTPLLNPPNIFQVRVERCQEAIHIAYLDEYSRYVPFRMAYFPVALDIQVGIMCASPQGNGYEVIFEDYQLTKKGEKLSLEHHHHHH	not soluble
MEYLFLRRKKTRYTSVRQKTLLYRAASRRWEKEFALRTDVRRIDALIYKGILYLMEVRQVFLDSSLSLKTLSAMLETNQTYLSNVVNRYFGCNLKELVNTYRVEYAKELLRSGRCPIEEVPVRSGFGSKSPFYVAFGKVTGMTPRQYVAHERNPLKQEENN	not soluble
MEYLFLRRKRTTATSERQKTLLFKAAERQWKEEFAGKETDIRKVDCNIYKGILYQLEIRQVFLDTSLSLKKLSALLETNQTYLSNVVNKYFGCNLKELVNTYRVEYAKELLCSRRCALTELPCSCGFASKSAFYSAFSRIVGVSPLSYQTQERRRHHLQAVNLEHHHHHH	not soluble
MEYRITGKGVEISEAIKNYLEKRLDKIDRVIYDDDLVSFNVRIEKDGKNQYVVKFNMNLKGNIINVEERHPDIYTAIDFASDALEKQVKRLKERLKNHPHRSSALVETPLEEPGEFSPSDKVSSVKRVSLLNLDLDEAVMQMDELNHRFLVFRNVNTGEINLLYRDENGDIHLIEMAE	not soluble
MEYTQIPSFALYNNASIFQFFPRNKRLSTHQKSCLDEHARKMAVFMMERQEEYRYYENLANQEQFSDDACFSDTGMDSGFCSGDTSTGQSASTSPAPAHLIPNPFFDPEYVASKTTMKLVANPFYNPKLAKEIKKKSTHTSKFQ	not soluble
MFAPALAYPRPMPELPEVETTRRKIEPLLRGKTIERIVHDAPHRYRNTERAHGRQVRGLTRRGKYLLLHLAAADAAEDEPHDLELIVHLGMTGGFRLEEGPHTRVTFELGSGEKLYFNDPRRFGKVVAVAPGDYASMPTLAAMGPEPLSDDFTEAEFVALAARCGPVKPWLLSQKPVSGVGNIYADESLWHARLHPAQTRLNADEAGRLYRAIREVMAAAVDKGGSSLGNGVGNYRQHDGEGGGFQHSHHVYGRAGQPCDRCGTPIEKIVLGQRGTHFCPVCQPLRTDRSA	not soluble
MFAYDRLALDLAVFNLKDVDSGNSSSSERSSPPTRIMSQAQNINDESGSSGYGSPTRTPLASPSNDIFSSVLPLQVQRAFSAQSPEEITRHFGVSPSPQAVKPVPEVQQQREQAQVSQTSAQGLAAVDGFSMAEIAGFAELLSSPKKTPPPRYQCHICYATGHHYISDCPQRFNTPYDELTPYQGRKKCYGEFTCQLCKRKWNSQNSVANEPQSCIKCHVPVFPHKQLPVEKAVTLGLIKAQNVTKVAPIGHGRPPARKHEEISRRH	not soluble
MFCFLQLPYHPNSSVHISTIDRITNSGRLYQYYSAEMTAEVIDFTKRNLEEAMNHNERRLLFRRSRSEPMTLTNENITMTSRTDPEWNMTVDSISIQSSFAEYQHRRKERLKKQEAHKTSEISLSSGPSELAMKGHTDFDAAIEFLDNKMPSTLSLTDSDNSHSSNDITSSQAKEISYEDEMRLFIEKTGHLVTNVFADPFDSDERKSRTEMWVEASTENLAEGGTTSDDVPTEKELELDMENNDILAESVVGTGTGELNDEKDEETVPVGLIPPVARQSTEDSILSSNVTVNSLLKSKLTINLKEASEALSEIDIADVDRFWDYLYEKDDIQKFSDELIYPIKMEIPSTSSSERSIGIALSPIKLDFAGIHVQKTGKIEKHIKMNSNEEKDRELDEPLEITDQTVETRFFELETTKNLEKINRGTTTSEHGNILIKTTASQTPVSQEVVQLVNYEPINFTKAQSDRNFDEKENMIRAFSFKLSESFYKDLKILVVERDRAKEAMDILPAKTMKELSEECNYYQTRYRVRIEQNKEKLDRRIEEVWKKLLKMPIESQEVIDFISVAHSELLTLNARRNLPDNM	not soluble
MFDFIGNGSAFNTERGNNSAFIKKNSSMILVDCGGTVFHRIKQLNLLQDIKNLYIIITHTHPDHIGSLGDLIFYCYYILKFKPTIIYPNKDIITDFFNIIGVGDEMYELVSDNKVNLTAPEFGDLNIEFIPASHVGVIPAYGFLIGMSDNLVYYSGDGNKLPEKNYKMAGDPLEHHHHHH	not soluble
MFDFSKVVDRHGTWCTQWDYVADRFGTADLLPFTISDMDFATAPCIIEALNQRLMHGVFGYSRWKNDEFLAAIAHWFSTQHYTAIDSQTVVYGPSVIYMVSELIRQWSETGEGVVIHTPAYDAFYKAIEGNQRTVMPVALEKQADGWFCDMGKLEAVLAKPECKIMLLCSPQNPTGKVWTCDELEIMADLCERHGVRVISDEIHMDMVWGEQPHIPWSNVARGDWALLTSGSKSFNIPALTGAYGIIENSSSRDAYLSALKGRDGLSSPSVLALTAHIAAYQQGAPWLDALRIYLKDNLTYIADKMNAAFPELNWQIPQSTYLAWLDLRPLNIDDNALQKALIEQEKVAIMPGYTYGEEGRGFVRLNAGCPRSKLEKGVAGLINAIRAVR	soluble
MFDPKKFIDEAVEEIKQQISDRKAIIALSGGVDSSVAAVLTHKAIGDKLTAVFVDTGLMRKGEREEVEKTFRDKLGLNLIVVDAKDRFLNALKGVTDPEEKRKIIGKLFIDVFEEIAEDIKAEVLVQGTIAPDWIETQGKIKSHHNVALPHGMVLEVVEPLRELYKDEVRLLAKELGLPDSIVYRQPFPGPGLAVRVLGEVTEEKLNICREANAIVEEEVKKANLDKDLWQYFAVVLDCKATGVKGDEREYNWIVALRMVKSLDAMTAHVPEIPFDLLKRISKRITSEIPNVARVVFDITDKPPATIEFE	soluble
MFDTLTHGELLKKTAMEVEADIAGIHKQIEEISERNEWRVLQSYRKHKVSDTHFTPSTGYGYDDIGRDTLESIYADVFGGEAGLVRPQIISGTHAISIALFGVLRPGDELLYITGKPYDTLEEIVGVRGGENAGSLKDFQIGYNAVDLTKDGKIDYDAVAAAINPKTKVIGIQRSKGYANRPSFLISEIKEMIRFVKEINENLIVFVDNCYGEFVEELEPCHVGADLMAGSLIKNPGGGLAKTGGYLVGKAKWIEACSYRMTSPGIGREAGASLYSLQEMYQGFFLAPHVVSQSLKGAVFTARFLEKLGFTSNPKWDAKRTDLIQSVEFSDGEKMIAFCQAIQFASPIDAHVTPYPAYMPGYEDDVIMAAGTFIQGASIELSADGPIRPPYVAYVQGGLTYSHVKNAICSAVDSLMQKQLILEHHHHHH	soluble
MFDYSAHPELLKGRVILVTGAARGIGAAAARAYAAHGASVVLLGRTEASLAEVSDQIKSAGQPQPLIIALNLENATAQQYRELAARVEHEFGRLDGLLHNASIIGPRTPLEQLPDEDFMQVMHVNVNATFMLTRALLPLLKRSEDASIAFTSSSVGRKGRANWGAYGVSKFATEGLMQTLADELEGVTAVRANSINPGATRTGMRAQAYPDENPLNNPAPEDIMPVYLYLMGPDSTGINGQALNAQ	soluble
MFENLTDRLSKTLKNISGKGRLTEDNIKDTLREVRMALLEADVALPVVRDFVNRVKEGAVGVEVSKSLTPGQEFIKIVRQQLEAVMGESNEALNLAAQPPAVILMAGLQGAGKTTSVGKLSKLLKERDKKKVLVVSADVYRPAAIKQLETLANDLGVDFFPSTPDQKPIDIANAAIDHAKKKFYDVLIVDTAGRLAIDEQMMAEIQALHKAINPVETLFVVDAMTGQDAADTAKAFGDALPLTGVILTKVDGDARGGAALSVRHITGKPIKFIGVGEKTDALEPFHPDRIASRILGMGDVLSLIEDLQRNVDQEKAEKLAKKFKEKKGFDLEDFREQLGQMKNMGGMMGMLDKLPGMSQLPADMKDKVDDRVFKQMEAIINSMTMKERQNPDLIKGSRKKRIAAGSGTQVQDVNRLLKQFTQMQKMMKKMQQGGMKGMMRNMQGLMGGGGRGGFGGGFFGR	not soluble
